Test results published in PMC7425896, “Polypeptides derived from α-Synuclein binding partners to prevent α-Synuclein fibrils interaction with and take-up by cells” (PLoS ONE, 2020).

Molecular target: α-Synuclein fibrils (preformed fibrils of recombinant human wild-type αSyn) (human, UniProt P37840 1-140)
Test: co-sedimentation; as a4 with a range of peptide concentrations (0–200 μM) and αSyn fibrils (100 μM); bound peptide by reversed phase chromatography
Conditions: both partners purified

Binder	Kd [µM]
GILNVSAVDKSTGKENKITITN (Hsc70 residues 484–505; source: synthetic peptide; bought: GL Biochem Ltd) [Hsc-10 (Hsc70-derived peptide)]	> 100
TKQTQTFTTYSDNQPGVLIQVYE (Hsc70 residues 422–444; source: synthetic peptide; bought: GL Biochem Ltd) [Hsc-6 (Hsc70-derived peptide)]	> 100
